Source: patent US20090048158A1, “Insulin-Like Growth Factor Binding Protein-4 Compounds and Methods for Inhibiting Angiogenesis and Tumor Growth in Mammalian Cells” (priority 2005, published 2009)

How the values were obtained:
[1] = tested on: plasminogen activator activity in U87MG cells; assay: Plasminogen activator activity assay (S-2251); format: cell-based, human; conditions: 500 μM dB-cAMP, 3-day treatment
Experimental: Plasminogen activator activity (PAA) was determined by a spectrophotometric method using the chromogenic substrate S-2251 (D-Val-Leu-Lys p-nitroanilide dihydrochloride). […] Cells were washed 3 times and incubated for 2 h at 37° C. in phenol red-free D-MEM containing 2 c.u./ml plasminogen (DiaPharma Group, Ohio, USA) and 2 mM chromogenic substrate S-2251 (DiaPharma Group, Ohio, USA). The cleavage of 4-nitroaniline from the substrate by plasminogen activator was measured photometrically at 405 nm. Protein levels were measured with BioRad protein assay and PPA was expressed as a function of protein content in cell extracts.

U87MG cells [2] = assay: Anchorage-independent growth in semi-solid agar (U87MG); format: cell-based, human; conditions: for reduction of U87MG colony formation / tumor growth in soft agar: 500 ng/ml protein
Experimental: D-MEM containing 10% FBS was warmed to 48° C. and diluted with Bacto-Agar to make a 0.6% (w/v) agar solution; 3 ml of agar solution was poured into 60 mm plates. […] Number and size of colonies formed were analyzed under the microscope (Olympus 1×50). Phase contrast images (6 fields/dish) were captured using a digital video camera (Olympus U-CMT) and analyzed with Northern Eclipse v.5.0 software. Each experiment was done in triplicate. Capillary-like tube (CLT) formation

U87MG cells [3] = assay: ELISA of secreted proteins in U87MG conditioned media; format: cell-based, human; conditions: 500 μM dB-cAMP, 6 days
U87MG cells [4] = assay: U87MG proliferation, CyQUANT Cell Proliferation Assay; format: cell-based, human; conditions: for decrease in proliferation: 500 μM dB-cAMP
Experimental: Proliferation rates of U87MG cells were determined using CyQUANT® Cell Proliferation Assay Kit (Molecular Probes, Inc., Eugene, Oreg.). […] Cells were fed every two days and harvested at days 2, 3, 5 and 6 by washing with HBSS, blotting microplates dry and storing at −80° C. until analysis. For cell density determination, plates were thawed at room temperature, 200 μl of CyQUANT GR dye/lysis buffer was added to each well and plates were incubated in the dark for 5 min. Sample fluorescence was measured (485 nm ex/530 nm em) in a cytofluorimeter plate reader (Bio-Tek FL600) and fluorescence values converted into cell numbers from cell reference standard curves.

U87MG cells [5] = assay: Real-time PCR (Q-PCR) gene expression; format: cell-based, human; conditions: 500 μM dB-cAMP
Experimental: Total RNA was isolated from cells with TRIzol Reagent (Gibco BRL). The RNA (1 μg) was primed with oligo (dT)12-18 primers (0.5 μg/μg RNA, Gibco BRL) and reverse transcribed with 1-3 U of avian myeloblastosis virus reverse transcriptase (AMV RT, Promega) in a final volume of 20 μl. Completed RT reactions were diluted to 40 μl with water. Control reactions without the enzyme were run in parallel to monitor for potential genomic contamination. Primers were designed (Primer Express Software v2.0) for genes of interest (Table III) using Primer Express 2.0 program. Real-Time PCR was carried out with SYBR Green PCR Core Reagents Kit (Applied Biosystems, CA, USA) using the GeneAmp® 5700 Sequence Detection System (Perkin Elmer Applied Biosystems). A cDNA pool serially diluted from 1:10 to 1:1000 was used to generate standard curves. Reactions were performed in 20 μl reaction mixture containing 1×SYBR PCR buffer (Perkin-Elmer), 200 μM of each dATP, dCTP, dGTP and 400 μM dUTP, 0.025 U/μl AmpliTaq Gold, 0.01 U/μl AmpEraseUNG (uracil-N-glycosylase), 3 mM MgCl2, 120 nM of each primer and 2 μl of cDNA. […] Fluorescence was detected at the end of every 60° C. phase. […]
The PCR cycle number at which fluorescence reaches a threshold value of 10 times the standard deviation of baseline emission was used for quantitative measurements. […]

PAI-1 in U87MG cells = assay: Western blot of PAI-1; format: cell-based, human; conditions: 500 μM dB-cAMP, 6 days
Experimental: Cellular proteins were extracted using CHAPS buffer. Proteins were separated on a 10% SDS-PAGE gel and transferred onto nitrocellulose membranes. Membranes were blocked with 5% instant skim dry milk in PBST for 1 hour, then washed twice for 5 min with PBST. Blots were probed with 1:500 dilution of the PAI-1 primary antibody (Biogenesis Ltd, England, UK) in 2% skim milk in PBST supplemented with 10 mM sodium azide overnight at 4° C. After washing in PBST, membranes were incubated with HRP-labeled anti-mouse IgG secondary antibody (NEN Life Science Products, USA; 1:5000) for 1 h at room temperature. Bands were visualized using Western Blot Chemiluminescence Reagent Plus kit (NEN™ Life Science Products) and the Fluor-S™ multiImager (BioRad Lab., Hercules, Calif., USA).

[6] = tested on: human brain endothelial cells (HBEC); assay: Capillary-like tube (CLT) formation in Matrigel; format: cell-based; conditions: for effect on IGF-1-induced CLT formation: IGF-1 150 ng/ml; for effect on IGF-1-induced CLT formation / effect on P1GF-induced CLT formation / effect on VEGF165-induced CLT formation / effect on bFGF-induced CLT formation: protein 500 ng/ml; for effect on P1GF-induced CLT formation: P1GF 100 ng/ml; for effect on VEGF165-induced CLT formation: VEGF165 20 ng/ml; for effect on bFGF-induced CLT formation: bFGF 20 ng/ml
Excerpt: Angiogenesis is the formation of new blood vessels from pre-existing capillaries. There are different methods to evaluate angiogenesis in vitro and in vivo. The method used in our studies consists in seeding human brain microvascular endothelial cells on Matrigel, which is an active matrix material resembling the mammalian cellular basement membrane. Endothelial cells seeded on Matrigel behave as they do in vivo and when submitted to an angiogenic stimuli reorganize forming a complex network of capillary-like tubes. The total length of the capillary-like tube network as well as the number of branching point (nodes) formed by the endothelial cells directly correlate with the potency of the angiogenic stimuli.
In vitro angiogenesis was assessed by endothelial tube formation in growth factor reduced Matrigel™ (BD Bioscience, Bedford, Mass.). 24-well plates were coated with 300 μl of unpolymerized Matrigel™ (5-7 mg prot/ml) and allowed to polymerize for 90 min at 37° C. […] In a set of experiments, 500 ng/ml of either full length recombinant IGFBP-4, NBP-4 or CBP-4 were co-applied with growth factors (IGF-I, VEGF165, P1GF, or bFGF) or U87MG CM. […] CLT formation was analyzed after 24 h using an Olympus 1×50 microscope. Phase contrast images were captured with a digital video camera (Olympus U-CMT) and analyzed using Northern Eclipse v.5.0 software. Microphotographs were thresholded, converted to binary images and skeletonized. The total length of the CLT networks and the number of nodes (branching points) formed by HBEC in the center of the well (˜80% of the total surface) were quantified. […]

Hela cells = assay: Anchorage-independent growth in semi-solid agar (Hela); format: cell-based, human; conditions: 500 ng/ml IGFBP-4, 4 weeks
Experimental: D-MEM containing 10% FBS was warmed to 48° C. and diluted with Bacto-Agar to make a 0.6% (w/v) agar solution; 3 ml of agar solution was poured into 60 mm plates. […] The solidified cell layer was covered with 500 μl D-MEM±treatment which was replaced every three days over a 20-25 day period. Number and size of colonies formed were analyzed under the microscope (Olympus 1×50). Phase contrast images (6 fields/dish) were captured using a digital video camera (Olympus U-CMT) and analyzed with Northern Eclipse v.5.0 software. Each experiment was done in triplicate. Capillary-like tube (CLT) formation

[7] = 500 ng/ml protein co-applied with U87MG CM

## CCCC(=O)Nc1ncnc2c1ncn2[C@@H]1O[C@@H]2COP(=O)(O)O[C@H]2[C@H]1OC(=O)CCC [dB-cAMP, dibutyryl cyclic AMP]
[1]
  reduction in plasminogen activator activity (PAA): 30%
U87MG cells [2]; 500 μM dB-cAMP or 500 ng/ml IGFBP-4
  total number of colonies vs untreated: not significantly (p<0.05) different
U87MG cells [2]; 500 μM dB-cAMP, 4 weeks
  reduction of size of colonies (total covered area per field): ~75%
U87MG cells [2]; 500 μM dB-cAMP, 4 weeks, untreated 1.1±0.3
  size of colonies (total covered area per field): 0.3±0.1 mm^2
U87MG cells [3]
  VEGF-A levels in CM, increase vs untreated: 20%
  levels of P1GF, IGF-1 and bFGF in CM: below the detection limit
U87MG cells [3]; untreated ~60
  VEGF-A level in CM of treated cells: ~80 ng/mL
U87MG cells [4]; day 3
  decrease in proliferation: ~30%
U87MG cells [4]; day 5
  decrease in proliferation: ~45%
U87MG cells [4]; day 6
  decrease in proliferation: ~50%
U87MG cells [5]
  IGF-I and IGF-II mRNA change, Q-PCR: no changes were detected
U87MG cells [5]; day 6
  IGFBP-3 mRNA levels treated vs untreated, Q-PCR: not significantly different
PAI-1 in U87MG cells
  PAI-1 protein expression: up-regulation
[6]; 500 μM dB-cAMP added directly to U87MG CM
  effect on U87MG CM-induced CLT formation: did not inhibit CLT formation
[6]; U87MG treated with 500 μM dB-cAMP, 6 days
  CLT formation by HBEC exposed to CM of dB-cAMP-treated U87MG: blocks the angiogenic response

## vascular endothelial growth factor-165 [VEGF]
[6]; 7 HBEC isolations, VEGF 20 ng/ml alone or U87MG CM
  HBEC preparations in which CLT formation was induced: 3 out of 7

B1: insulin-like growth factor binding protein (IGFBP)-4 (protein)
chain: MLPLCLVAALLLAAGPGPSLGDEAIHCPPCSEEKLARCRPPVGCEELVREPGCGCCATCALGLGMPCGVYTPRCGSGLRCYPPRGVEKPLHTLMHGQGVCMELAEIEAIQESLQPSDKDEGDHPNNSFSPCSAHDRRCLQKHFAKIRDRSTSGGKMKVNGAPREDARPVPQGSCQSELHRALERLAASQSRTHEDLYIIPIPNCDRNGNFHPKQCHPALDGQRGKCWCVDRKTGVKLPGGLEPKGELDCHQLADSFREVDPWSHPQFEKTGHHHHHHHHGGQ
modifications: Streptag-II/His8 tag; IGFBP-4 construct
notes: full length recombinant IGFBP-4 with Streptag-II/(His)8 tag, aa 1 to 258
U87MG cells [2]; 500 ng/ml IGFBP-4, 4 weeks, untreated 1.5±0.6
  size of colonies (total area per field): 0.4±0.3 mm^2
U87MG cells [2]; 4 weeks
  reduction of U87MG colony formation / tumor growth in soft agar: ~80%
U87MG cells [4]; 500 ng/ml
  effect on U87MG proliferation rates: did not affect U87MG proliferation rates
Hela cells
  reduction of Hela colony formation / colony size: ~45%
Hela cells; listed as IGFBP4
  reduction of Hela colony formation / colony size: ~50%
[6]; [7]
  effect on U87MG CM-induced CLT formation: reversed U87MG CM-stimulated CLT (FIG. 4A-C) to control levels
[6]
  effect on IGF-1-induced CLT formation: potently inhibited
  effect on P1GF-induced CLT formation: antagonized
  effect on VEGF165-induced CLT formation: antagonized
  effect on bFGF-induced CLT formation: antagonized

B2: CBP-4: recombinant C-terminal IGFBP-4 protein fragment, aa 155 to 258 of the precursor, tagged (protein)
chain: MLLLLLLLGLRLQLSLGIASKVNGAPREDARPVPQGSCQSELHRALERLAASQSRTHEDLYIIPIPNCDRNGNFHPKQCHPALDGQRGKCWCVDRKTGVKLPGGLEPKGELDCHQLADSFREVDPWSHPQFEKTGHHHHHHHHGGQ
modifications: tagged; IGFBP4 C-terminal construct
notes: recombinant C-terminal IGFBP-4 protein fragment, aa 155 to 258 of the precursor, tagged
U87MG cells [2]; 4 weeks
  reduction of U87MG colony formation / tumor growth in soft agar: ~55%
[6]; [7]
  effect on U87MG CM-induced CLT formation: completely blocking
[6]
  effect on IGF-1-induced CLT formation: completely blocking
  effect on P1GF-induced CLT formation: completely blocking
  effect on VEGF165-induced CLT formation: completely blocking
  effect on bFGF-induced CLT formation: completely blocking

B3: NBP-4: recombinant N-terminal IGFBP-4 protein fragment, aa 1 to 156 of the precursor, tagged (protein)
chain: MLPLCLVAALLLAAGPGPSLGDEAIHCPPCSEEKLARCRPPVGCEELVREPGCGCCATCALGLGMPCGVYTPRCGSGLRCYPPRGVEKPLHTLMHGQGVCMELAEIEAIQESLQPSDKDEGDHPNNSFSPCSAHDRRCLQKHFAKIRDRSTSGGKMDPWSHPQFEKTGHHHHHHHHGGQ
modifications: tagged; IGFBP4 N-terminal fragment construct
notes: recombinant N-terminal IGFBP-4 protein fragment, aa 1 to 156 of the precursor, tagged
U87MG cells [2]; 4 weeks
  reduction of U87MG colony formation / tumor growth in soft agar: ~50%
[6]
  effect on IGF-1-induced CLT formation: abolish the angiogenic response
  effect on VEGF165-induced CLT formation: abolish the angiogenic response
